In the supplement of paper PMC9112550, “Optimization of the antimicrobial peptide Bac7 by deep mutational scanning” (BMC Biology, 2022):

Test system: Escherichia coli TOP10
Test: shrunken log2 fold change of peptide-encoding DNA abundance (4.5 h post-induction vs induction); higher = less antimicrobial activity (less host growth inhibition)
Details: time post-induction: 4.5 h; library: site-saturation at positions 5, 18, 19, 20
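Also: peptides expressed intracellularly from a pBAD plasmid library in pooled LB shake-flask culture, induced with 0.3% L-arabinose, DNA abundance read by NGS, three biological replicates, DESeq2 with apeglm shrinkage.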

Sequence | shrunken log2 fold change
RRIRGRPPRLPRPRPRPFARPRP | 0.484
RRIRQRPPRLPRPRPRPTGPPRP | 0.22
RRIRARPPRLPRPRPRPTGKPRP | 0.215
RRIRWRPPRLPRPRPRPLVKPRP | 0.147
RRIRMRPPRLPRPRPRPHSWPRP | 0.273
RRIRFRPPRLPRPRPRPVTLPRP | 0.347
RRIRNRPPRLPRPRPRPINLPRP | -0.176
RRIRMRPPRLPRPRPRPTFMPRP | 0.154
RRIRERPPRLPRPRPRPNKPPRP | -0.0937
RRIRPRPPRLPRPRPRPQMIPRP | -0.594
RRIRCRPPRLPRPRPRPPSQPRP | 0.355
RRIRKRPPRLPRPRPRPEFYPRP | -0.0131
RRIRARPPRLPRPRPRPMWPPRP | 0.527
RRIRQRPPRLPRPRPRPGIIPRP | 0.0277
RRIRKRPPRLPRPRPRPNCNPRP | 0.00173
RRIRYRPPRLPRPRPRPNMMPRP | -0.645
RRIRWRPPRLPRPRPRPYCSPRP | -0.0518
RRIRGRPPRLPRPRPRPIMFPRP | 0.382
RRIRTRPPRLPRPRPRPSMFPRP | -0.46
RRIRARPPRLPRPRPRPPKAPRP | 0.685
RRIRIRPPRLPRPRPRPHQMPRP | 0.0234
RRIRPRPPRLPRPRPRPLVQPRP | -0.0898
RRIRYRPPRLPRPRPRPISLPRP | -0.333
RRIRMRPPRLPRPRPRPGAEPRP | 3.05
RRIRQRPPRLPRPRPRPTSLPRP | -0.0738

Sequence | shrunken log2 fold change
RRIRNRPPRLPRPRPRPCAGPRP | -0.123
RRIRLRPPRLPRPRPRPFVKPRP | -0.225
RRIRHRPPRLPRPRPRPCVFPRP | -0.0413
RRIRMRPPRLPRPRPRPIMCPRP | -0.19
RRIRPRPPRLPRPRPRPRFRPRP | 0.217
RRIRFRPPRLPRPRPRPPSRPRP | 0.551
RRIRCRPPRLPRPRPRPLLIPRP | -0.4
RRIRYRPPRLPRPRPRPNEDPRP | -0.246
RRIRPRPPRLPRPRPRPQGVPRP | 0.07
RRIRYRPPRLPRPRPRPMHLPRP | -0.00136
RRIRPRPPRLPRPRPRPNQLPRP | -0.258
RRIRKRPPRLPRPRPRPYRAPRP | -0.117
RRIRVRPPRLPRPRPRPEKIPRP | -0.191
RRIRGRPPRLPRPRPRPNTMPRP | 0.0452
RRIRGRPPRLPRPRPRPFHCPRP | -0.36
RRIRQRPPRLPRPRPRPWTIPRP | -0.142
RRIRGRPPRLPRPRPRPQAFPRP | 0.112
RRIRGRPPRLPRPRPRPFNIPRP | -0.199
RRIRGRPPRLPRPRPRPCTEPRP | 0.509
RRIRDRPPRLPRPRPRPANSPRP | 2.98
RRIRSRPPRLPRPRPRPNMTPRP | -0.247
RRIRIRPPRLPRPRPRPRCMPRP | -0.284
RRIRLRPPRLPRPRPRPYGEPRP | -0.0013
RRIRKRPPRLPRPRPRPEAIPRP | 0.101
RRIRYRPPRLPRPRPRPRFEPRP | -0.386

Sequence | shrunken log2 fold change
RRIRERPPRLPRPRPRPSDAPRP | -0.0474
RRIRERPPRLPRPRPRPRVSPRP | 0.0184
RRIRIRPPRLPRPRPRPNLWPRP | -0.132
RRIRLRPPRLPRPRPRPANRPRP | -0.133
RRIRFRPPRLPRPRPRPFLCPRP | -0.313
RRIRMRPPRLPRPRPRPLCNPRP | 0.0857
RRIRERPPRLPRPRPRPGEEPRP | 0.175
RRIRERPPRLPRPRPRPTWCPRP | 3.3
RRIRKRPPRLPRPRPRPMRWPRP | 1.41
RRIRHRPPRLPRPRPRPIWIPRP | 0.0409
RRIRHRPPRLPRPRPRPWSKPRP | -0.301
RRIRMRPPRLPRPRPRPNFAPRP | 0.318
RRIRTRPPRLPRPRPRPPVPPRP | 0.139
RRIRCRPPRLPRPRPRPFPVPRP | 0.11
RRIRVRPPRLPRPRPRPVIAPRP | -0.0291
RRIRFRPPRLPRPRPRPKHPPRP | 0.194
RRIRKRPPRLPRPRPRPIDYPRP | -0.0337
RRIRIRPPRLPRPRPRPFWVPRP | -0.2
RRIRARPPRLPRPRPRPAVAPRP | 0.728
RRIRPRPPRLPRPRPRPLQFPRP | -0.178
RRIRKRPPRLPRPRPRPDNMPRP | 0.107
RRIRIRPPRLPRPRPRPTPEPRP | 0.232
RRIRCRPPRLPRPRPRPYYKPRP | -0.992
RRIRMRPPRLPRPRPRPTCGPRP | 0.942
RRIRHRPPRLPRPRPRPTSIPRP | 0.0484
